Target: T1, Egalitarian (EGL) (UniProt Q9W1K4)
T1 sequence: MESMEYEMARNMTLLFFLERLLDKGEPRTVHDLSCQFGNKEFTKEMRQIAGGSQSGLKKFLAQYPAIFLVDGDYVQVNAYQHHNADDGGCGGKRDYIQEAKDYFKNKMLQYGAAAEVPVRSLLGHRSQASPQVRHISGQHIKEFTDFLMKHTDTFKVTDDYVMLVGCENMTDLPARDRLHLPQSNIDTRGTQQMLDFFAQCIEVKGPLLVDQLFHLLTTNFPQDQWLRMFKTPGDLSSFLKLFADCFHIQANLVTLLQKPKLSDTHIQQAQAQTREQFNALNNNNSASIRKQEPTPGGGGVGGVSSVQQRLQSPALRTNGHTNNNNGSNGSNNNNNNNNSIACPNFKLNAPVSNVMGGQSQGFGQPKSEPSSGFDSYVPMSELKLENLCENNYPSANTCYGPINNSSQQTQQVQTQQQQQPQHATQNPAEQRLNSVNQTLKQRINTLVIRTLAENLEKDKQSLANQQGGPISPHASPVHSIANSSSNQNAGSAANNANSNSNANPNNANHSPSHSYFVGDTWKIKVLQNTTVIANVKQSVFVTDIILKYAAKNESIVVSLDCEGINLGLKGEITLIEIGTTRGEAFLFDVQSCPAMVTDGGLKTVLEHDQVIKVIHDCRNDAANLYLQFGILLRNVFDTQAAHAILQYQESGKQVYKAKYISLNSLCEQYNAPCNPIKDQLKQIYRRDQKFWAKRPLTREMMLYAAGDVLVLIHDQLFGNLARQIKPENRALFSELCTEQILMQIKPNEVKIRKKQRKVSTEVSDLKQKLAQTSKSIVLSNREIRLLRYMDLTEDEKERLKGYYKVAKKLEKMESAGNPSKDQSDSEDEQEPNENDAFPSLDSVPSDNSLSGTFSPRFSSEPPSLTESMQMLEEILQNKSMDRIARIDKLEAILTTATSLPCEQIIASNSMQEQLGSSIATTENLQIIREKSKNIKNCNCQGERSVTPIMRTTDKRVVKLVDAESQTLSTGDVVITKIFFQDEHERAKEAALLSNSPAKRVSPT
Assay: pull-down
Details: reference (all sets normalized to TLS); EGL capture: DXB buffer (30 mM Hepes pH 7.3, 50 mM KCl, 2.5 mM MgCl2, 250 mM sucrose, 1 mM DTT), protease and RNase inhibitors, 90 min (binding temperature not …)

fs(1)K10 TLS
binding signal (fraction of TLS binding): 1

— publication PMC8046350
